Experimental data: the supplement of paper PMC9170038

Test system: MS2 coat protein
Experiment: apparent KD of MS2 coat protein; designed switch direction (-1 OFF switch, 1 ON switch): -1; higher = weaker reporter binding
Outline: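 RNA switches sharing common flanks were transcribed by stalled E. coli RNA polymerase on Illumina chips. A doubling series of SNAP-549-labelled MS2 coat protein, from 0.7 or 1.5 nM to 3 µM, was applied in Tris-HCl pH 7.5 buffer with KCl, MgCl2, BSA, DTT, tRNA and Tween-20. Each step lasted 0.8–1.5 h at the bottom of the series and 10–20 min at the top. Normalised cluster fluorescence was curve-fitted, giving apparent KD as the per-design median over clusters.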

[1] = input ligand: microRNA oligo, concentration not stated
[2] = Eterna round: R95, input ligand: microRNA oligo, concentration not stated

Sequence	apparent KD of MS2 coat protein (input ligand: FMN 200 uM) [nM]	apparent KD of MS2 coat protein (input ligand: none) [nM]	apparent KD of MS2 coat protein [2] [nM]	other results
UUUUAAUAUGAAGGAUAUACUUAACAUGAGGAUCACCCAUGUGGUGUUGUGAGUGAGUGAGUUUAGUAGAAGGUCAAUUAUUUU [JMF's solution 25] (Eterna round: R96, puzzle: Exclusion NG 2)	1020	405	–	apparent KD of MS2 coat protein [1]: 249 nM
UUUUACAUAGGAUAUAGUUUGUUGUACAUGAGGAUCACCCAUGUUUUUGUUUGUGCUUUUCUAGAAGGAUGUUUCU [JR_E5_Sub016] (puzzle: Exclusion 5)	–	–	28.9	–
UUUUACCGAGGAUAUACAUAUAAAUAAUAAUCCUCAUUAUUACAUGAGGAUCACCCAUGUAGAAGGCGGAUUUU [Mat - Exclusion 2 - Mod of Hog - D88] (puzzle: Exclusion 2)	–	–	96.3	–
UUUUAGAGAGGAUAUAUAUUGUGAAACAUGAGGAUCACCCAUGUAAUAAUAUGGAUAUAAAUAGAAGGCUCAUUUA [Mat - Exclusion 5 - JL mod - D8] (puzzle: Exclusion 5)	–	–	26.9	apparent KD of MS2 coat protein (Eterna round: R95, input ligand: FMN 200 uM): 25.7 nM; apparent KD of MS2 coat protein (Eterna round: R95, input ligand: none): 28.8 nM
UUUUAGCAAGCGAGUAUUAACAUGAGGAUCACCCAUGUGCAUCCAGUAUUACUUUUAGAUCAAGCUCGUCUUAUAUA [JR_STOV1_v2_Sub082] (Eterna round: R97, puzzle: Sensor, turn-off variant 1)	199	285	–	–
UUUUAGCAAGGAUAUACAUUUUUUUUAUUAUCCUCAUUAUUACAUGAGGAUCACCCAUGUAGAAGGUGCAUUUU [My Design] (puzzle: Exclusion 2)	–	–	36.7	–
UUUUAGUAAGGAUAUGAUUAGAUCUACGAAAGUAGAUCUAAUCAGAAGGUACAUGAGGAUCACCCAUGUAGAUU [Mod of Brourd 3 - Jieux - Exclusion 4] (Eterna round: R97, puzzle: Exclusion 4)	24.2	18.5	–	–
UUUUAGUCAGGAUAUACAUGAGGAUCACCCAUGUAAAAUUUUAAUUUAAUUUGAAUGUGUAGAAGGGACAUUUU [Ex3 #41] (Eterna round: R97, puzzle: Exclusion 3)	23.6	26.4	–	–
UUUUAUUGCAAGGAUAUGCAAAUUAUUAUUAAUGCAGAAGGUGCUACAUGAGGAUCACCCAUGUUUCUGGGUUU [JR_E6_Sub043] (puzzle: Exclusion 6)	–	–	110	–
UUUUCGUAAGGAUAUGGUUAGAUCUACGAAAGUAGAUCUAACCAGAAGGUACAUGAGGAUCACCCAUGUUGGUA [Mod of Brourd 22 - Jieux - Exclusion 4] (Eterna round: R97, puzzle: Exclusion 4)	79.8	29.9	–	–
UUUUGCACGCUGCGGUCCUACAUGAGGAUCACCCAUGUGGUCUGGUGGCGUGGGUCGCCGGACUUGGCUCGUCUUGA [salish99_S_TOV1_R5_037] (Eterna round: R97, puzzle: Sensor, turn-off variant 1)	17.5	18.2	–	–
UUUUGCUCAGGAUAUACAUGAGGAUCACCCAUGUAUAUUGAAGGUAAUACAUGGGAAUGUAGAAGGGAGCUCAU [Omei Ex3 Pseudoloop 21] (Eterna round: R97, puzzle: Exclusion 3)	47.9	70.4	–	–
UUUUGGCAUGUAGGAUAUGGGUCCGAUUAGGAUUUAGAAGGACAUGAGGAUCACCCAUGUGCACUUAAUUGGUCUUUUUUUUUU [EXclNG1-LROPPY16] (Eterna round: R96, puzzle: Exclusion NG 1)	37.7	36.5	–	apparent KD of MS2 coat protein [1]: 23.5 nM
UUUUGGCAUGUAGGAUAUGGGUCCGAUUAGGAUUUAGAAGGACAUGAGGAUCACCCAUGUGCAUUUAAUUGGUCAUUACCUUUU [EXclNG1-LROPPY11] (Eterna round: R96, puzzle: Exclusion NG 1)	–	–	–	apparent KD of MS2 coat protein [1]: 65.5 nM
UUUUGGCAUGUAGGAUAUGGGUCCGAUUGGGAUUUAGAAGGACAUGAGGAUCACCCAUGUGCCCUUACUUGGUCUUUUUUUUUU [EXclNG1-LROPPY19] (Eterna round: R96, puzzle: Exclusion NG 1)	298	228	–	apparent KD of MS2 coat protein [1]: 128 nM
UUUUGUCAGGUAUUUAUUAACAUGAGGAUCACCCAUGUGCAUCCAAAAUUACUUUUAGAUCAAGCUCGUCUUAUAUA [JR_STOV1_Sub089] (Eterna round: R97, puzzle: Sensor, turn-off variant 1)	94.3	102	–	–
UUUUUAUAUGAAGGAUAUACUUAACAUGAGGAUCACCCAUGUGGUGUUGUGAGUGAGUGAGUUUAGUAGAAGGUCAAUUCUUAU [JMF's solution 82] (Eterna round: R96, puzzle: Exclusion NG 2)	516	395	–	apparent KD of MS2 coat protein [1]: 651 nM
UUUUUAUUUGAAGGAUAUACUUAACAUGAGGAUCACCCAUGUGGUGUUGUGAGUGAGUGAGUUUAGUAGAAGGUCAAUUAUUUU [JMF's solution 18] (Eterna round: R96, puzzle: Exclusion NG 2)	–	–	–	apparent KD of MS2 coat protein [1]: 359 nM
UUUUUCUCAGGAUAUACAUGAGGAUCACCCAUGUAUAUUAAGGAUAAUACAUGGGAAUGUAGAAGGGAGCUCAU [Omei Ex3 Pseudoloop 12] (Eterna round: R97, puzzle: Exclusion 3)	106	160	–	–
UUUUUGUAUGAAGGAUAUACUUAACAUGAGGAUCACCCAUGUGGUGUUGUGAGUGAGUGAGUUUAGUAGAAGGUCAAGUAUUUU [JMF's solution 46] (Eterna round: R96, puzzle: Exclusion NG 2)	580	390	–	apparent KD of MS2 coat protein [1]: 606 nM
UUUUUGUCAGGAUAUGACUAGAUGCACGUUAGUGUAUUUACUUAGAAGGGACAUGAGGAUCACCCAUGUAUUCC [Bring Us a Shrubbery-13] (puzzle: Exclusion 4)	–	–	26.2	–
UUUUUGUGAGGAUAUCAGUAGUAAAAAAAUAAAAUUACUACUGAGAAGGCACAUGAGGAUCACCCAUGUUUUUC [salish99_ex4_r3_014] (puzzle: Exclusion 4)	–	–	35.6	–
UUUUUUGUUGUGAGGAUAUCGUUGUGGAUGUGGAUCGAGAAGGCACAUGAGGAUCACCCAUGUUUGUUGUGGUU [JR_BMOE4_Sub085] (puzzle: Brourd's mod of Exclusion 4)	–	–	86.7	–
UUUUUUUUGGUAAGGAUAUGAUGCAGGAAACUGCGUCAGAAGGUACAUGAGGAUCACCCAUGUUAAUUUUUUUU [Explosion 11 - Jieux - Brourd's mod of Exclusion 4] (Eterna round: R97, puzzle: Brourd's mod of Exclusion 4)	23	18.6	–	–
